Where “and” joins values, the source holds several entries; their conditions need not be identical. Equal values may be shown once.
Details: whole UniProt chain shown
[1] = Geobacillus stearothermophilus, pH 5.4, 25 °C, Thermal, CD, acetate 20 mM, NaCl 100 mM, reversible: yes
[2] = Geobacillus stearothermophilus, pH 5.4, 25 °C, Urea, CD, acetate 20 mM, NaCl 100 mM, reversible: yes
[3] = Geobacillus stearothermophilus, pH 5.4, 25.15 °C, Urea, CD, sodium acetate 10 mM, Nacl 100 mM
[4] = Geobacillus stearothermophilus, pH 5.4, Thermal, CD, acetate 20 mM, NaCl 100 mM, reversible: yes
[5] = Geobacillus stearothermophilus, pH 5.45, 10 °C, GdnHCl, CD, sodium acetate,sodium sulfate
[6] = Geobacillus stearothermophilus, pH 5.45, 25 °C, Urea, CD, Sodium phosphate 20 mM, NaCl 100 mM, reversible: Yes
[7] = Geobacillus stearothermophilus, pH 5.45, 25 °C, Urea, CD, sodium phosphate 10 mM, NaCl 100 mM, reversible: Yes
[8] = Geobacillus stearothermophilus, pH 5.45, 25 °C, Urea, CD, sodium phosphate 20 mM, sodium chloride 100 mM, reversible: yes
[9] = Geobacillus stearothermophilus, pH 5.45, 25 °C, Urea, Fluorescence, Sodium phosphate 20 mM, NaCl 100 mM, reversible: Yes
[10] = Geobacillus stearothermophilus, pH 5.5, 25 °C, Urea, CD, NaAc 20 mM, NaCl 100 mM
[11] = Geobacillus stearothermophilus, pH 5.5, 25 °C, Urea, CD, Sodium phosphate 20 mM, NaCl 100 mM
[12] = Geobacillus stearothermophilus, pH 8, 25 °C, GdnHCl, CD, Tris-HCl 20 mM, sodium chloride 100 mM, reversible: yes
[13] = Geobacillus stearothermophilus, pH 8, 25 °C, Urea, CD, Sodium phosphate 20 mM, NaCl 100 mM, reversible: Yes
[14] = Geobacillus stearothermophilus, pH 8, 25 °C, Urea, CD, sodium phosphate 20 mM, sodium chloride 100 mM, reversible: yes
[15] = Geobacillus stearothermophilus, pH 8, 25 °C, Urea, Fluorescence, Sodium phosphate 20 mM, NaCl 100 mM, reversible: Yes
[16] = Fusarium vanettenii, pH 9, Thermal, DSC, Tris 10 mM, NaCl 40 mM, reversible: no

B1: Large ribosomal subunit protein bL9 wild type, P02417 (protein)
chain: MKVIFLKDVKGKGKKGEIKNVADGYANNFLFKQGLAIEATPANLKALEAQKQKEQRQAAEELANAKKLKEQLEKLTVTIPAKAGEGGRLFGSITSKQIAESLQAQHGLKLDKRKIELADAIRALGYTNVPVKLHPEVTATLKVHVTEQK
Geobacillus stearothermophilus, pH 5.4, 25 °C, GdnHCl, CD, phosphate 10 mM, NaCl 100 mM, reversible: yes
  unfolding free energy: 2.1 kcal/mol
[1]
  heat capacity change of unfolding: 0.38 kcal/mol/K
  unfolding free energy: 2.18 kcal/mol
[2]
  denaturant m value: 0.48 kcal/mol/M
  denaturant midpoint (higher = more stable): 3.96 M
  unfolding free energy: 1.9 kcal/mol
[3]
  denaturant m value: 0.66 kcal/mol/M
  denaturant midpoint (higher = more stable): 6.5 M
  unfolding free energy: 4.3 kcal/mol
[4]
  Tm: 65.3 °C
  heat capacity change of unfolding: 0.38 kcal/mol/K
  unfolding enthalpy (van 't Hoff): 26.3 kcal/mol
[5]
  denaturant m value: 1.52 kcal/mol/M
  unfolding free energy: 6.02 kcal/mol
Geobacillus stearothermophilus, pH 5.45, 25 °C, Thermal, CD, Sodium phosphate 20 mM, NaCl 100 mM, reversible: Yes (>90%)
  unfolding free energy: 3.82 kcal/mol
[6]
  denaturant m value: 1.32 kcal/mol/M
  unfolding free energy: 3.32 kcal/mol
[7]
  denaturant m value: 0.66 kcal/mol/M
  unfolding free energy: 4.17 kcal/mol
[8]
  denaturant m value: 1.21 kcal/mol/M
  unfolding free energy: 3.91 kcal/mol
[9]
  denaturant m value: 1.24 kcal/mol/M
  unfolding free energy: 3.84 kcal/mol
[10]
  denaturant m value: 0.66 kcal/mol/M
  unfolding free energy: 4.3 kcal/mol and 5.85 kcal/mol
[11]
  denaturant m value: 0.66 kcal/mol/M
  unfolding free energy: 4.3 kcal/mol
Geobacillus stearothermophilus, pH 7.4, Thermal, CD, Tris 10 mM, NaCl 100 mM, reversible: yes(95-100%)
  Tm: 77 °C
[12]
  denaturant m value: 2.24 kcal/mol/M
  unfolding free energy: 5.9 kcal/mol
[13]
  denaturant m value: 1.02 kcal/mol/M
  unfolding free energy: 6.45 kcal/mol
[14]
  denaturant m value: 1.02 kcal/mol/M
  unfolding free energy: 6.38 kcal/mol
[15]
  denaturant m value: 1.05 kcal/mol/M
  unfolding free energy: 6.49 kcal/mol
Geobacillus stearothermophilus, pH 8, Thermal, CD, Sodium phosphate 20 mM, NaCl 100 mM, reversible: Yes (>90%)
  unfolding free energy: 5.77 kcal/mol

B2: Cutinase 1 wild type, P00590 (protein)
chain: MKFFALTTLLAATASALPTSNPAQELEARQLGRTTRDDLINGNSASCRDVIFIYARGSTETGNLGTLGPSIASNLESAFGKDGVWIQGVGGAYRATLGDNALPRGTSSAAIREMLGLFQQANTKCPDATLIAGGYSQGAALAAASIEDLDSAIRDKIAGTVLFGYTKNLQNRGRIPNYPADRTKVFCNTGDLVCTGSLIVAAPHLAYGPDARGPAPEFLIEKVRAVRGSA
Fusarium vanettenii, pH 4.5, Thermal, Fluorescence, Sodium acetate 25 mM, reversible: Yes
  Tm: 75 °C
[16]
  unfolding enthalpy (calorimetric): 104 kcal/mol and 92.3 kcal/mol
  unfolding enthalpy (van 't Hoff): 212 kcal/mol and 122 kcal/mol
